According to US20180057553A1 (UNIVERSITY OF TOKYO, published 2018):

Tests used:
[1] = target: T1, recombinant human TNF-alpha (Life Technologies) (human, UniProt P01375 77-233); assay: SPR (Biacore), conjugate amine-coupled to chip, TNF-alpha as analyte
Description: (§1) Recombinant human TNF-alpha (Life Technologies) was used as TNF-alpha.

[2] = target: T1, recombinant human TNF-alpha (Life …); assay: depletion assay: serially diluted conjugate mixed with human TNF-alpha (100% = 6.2 ng/mL), complex adsorbed on diol Sepharose beads, TNF-alpha remaining in the supernatant measured by ELISA; 2nd experiment
Protocol: (§2) The complex of TNF-alpha and the conjugate were then adsorbed using 3 microliters of diol Sepharose beads. Subsequently, TNF-alpha in the supernatant was measured by ELISA, and the percentage of the remaining TNF-alpha was calculated. Experiments were done twice, independently.

[3] = target: T1, recombinant human TNF-alpha (Life …); assay: depletion assay: serially diluted conjugate mixed with human TNF-alpha (100% = 6.2 ng/mL), complex adsorbed on diol Sepharose beads, TNF-alpha remaining in the supernatant measured by ELISA; 1st experiment
Protocol: as §2

[4] = target: T1, recombinant human TNF-alpha (Life …); assay: Biacore SPR: conjugate fixed to the sensor chip via an amino group, recombinant human TNF-alpha as analyte at 0.78-100 nM
Description: as §1

T1 sequence (P01375 77-233 limits assumed): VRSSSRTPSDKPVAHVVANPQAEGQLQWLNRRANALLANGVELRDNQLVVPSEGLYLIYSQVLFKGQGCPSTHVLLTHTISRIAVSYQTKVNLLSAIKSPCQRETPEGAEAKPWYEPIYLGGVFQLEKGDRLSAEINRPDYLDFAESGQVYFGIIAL

Kd [1]: 0.468 nM
kon [1]: 1.14e+06 M⁻¹ s⁻¹
EC50 (read off the curve) [2]: ~0.3 µg/mL
EC50 (read off the curve) [3]: ~0.3 µg/mL
koff [4]: 0.000536 s⁻¹
B1: conjugate of the extracellular region of human TNF receptor 2 (TNFR2) and mutant recombinant human intelectin-1 (S165A) (receptor)
chain: LPAQVAFTPYAPEPGSTCRLREYYDQTAQMCCSKCSPGQHAKVFCTKTSDTVCDSCEDSTYTQLWNWVPECLSCGSRCSSDQVETQACTREQNRICTCRPGWYCALSKQEGCRLCAPLRKCRPGFGVARPGTETSDVVCKPCAPGTFSNTTSSTDICRPHQICNVVAIPGNASMDAVCTSTSPTRSMAPGAVHLPQPVSTRSQHTQPTPEPSTAPSTSFLLPMGPSPPAEGSTGDGTDEANTYFKEWTCSSSPSLPRSCKEIKDECPSAFDGLYFLRTENGVIYQTFCDMTSGGGGWTLVASVHENDMRGKCTVGDRWSSQQGSKADYPEGDGNWANYNTFGSAEAATSDDYKNPGYYDIQAKDLGIWHVPNKSPMQHWRNSALLRYRTDTGFLQTLGHNLFGIYQKYPVKYGEGKCWTDNGPVIPVVYDFGDAQKTASYYSPYGQREFTAGFVQFRVFNNERAANALCAGMRVTGCNTEHHCIGGGGYFPEASPQQCGDFSGFDWSGYGTHVGYSSSREITEAAVLLFYR
notes: also called conjugate of TNFR2 and intelectin
